Molecular target: human PD-L1 expressed on cells (human) (UniProt Q9NZQ7)
Experiment: flow cytometry on 293T-PD-L1-CD3L cells, PE anti-human IgG, Mean PE-A; fit of a nearly flat control curve

Substance: Isotype control (antibody)
- EC50: 29.2 nM
